In assay [1] the target is T1, human-CD40-monomer protein (human, UniProt P25942 21-193, limits assumed).
T1 construct: Soluble monomer generated in house, used as SPR analyte; also called hCD40; hCD40-monomer
The experiment in a line: SPR, Ab captured on protein A, hCD40 monomer 500 and 50 nM, 1:1 fit; supernatant; sup (supernatant); Vh-hz2 / Vk-hz2. On the procedure:
Titer analysis was performed using Biolayer Interferometry (BLI) on an Octet RED instrument (Fortebio) by capturing antibodies from supernatant using protein A sensor tips and measuring capture response with respect to a standard curve obtained using a control antibody sample. SPR data were obtained by capturing antibodies on a protein A surface and testing the binding of 500 nM and 50 nM injections of human-CD40 analyte, using a BIAcore™ T200 instrument (GE Healthcare). The kinetic data for the two concentrations of hCD40-monomer were fit to a 1:1 Langmuir model, to yield estimates of the kinetic and affinity values for these interactions, and for comparison of the different molecules.

The target of assay [2] is T1, human-CD40-monomer protein. The experiment in a line: SPR, Ab captured on protein A, hCD40 monomer 500 and 50 nM, 1:1 fit; supernatant. In outline:
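Antibodies captured on protein A surface; human CD40 monomer injected as analyte at 500 nM and 50 nM. Kinetic data from both concentrations fitted to 1:1 Langmuir model to estimate kinetic and affinity values. Supernatant titers determined by BLI protein A capture against a control antibody standard curve.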

The target in assay [3] is T2, hCD64 (human, UniProt P12314 16-288, limits assumed).
T2 construct: His-tagged; also called hFcγRI
T2 sequence (P12314 16-288 limits assumed): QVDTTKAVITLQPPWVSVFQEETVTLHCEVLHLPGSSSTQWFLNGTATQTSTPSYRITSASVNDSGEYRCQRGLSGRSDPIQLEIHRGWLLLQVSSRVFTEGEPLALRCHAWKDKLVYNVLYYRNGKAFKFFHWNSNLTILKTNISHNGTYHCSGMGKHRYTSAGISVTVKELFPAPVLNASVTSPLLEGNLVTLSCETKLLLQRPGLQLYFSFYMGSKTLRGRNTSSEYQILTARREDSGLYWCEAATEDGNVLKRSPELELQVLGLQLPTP
The assay can be described thus: SPR, antibody captured on protein A, His-tagged hCD64 as analyte; %Rmax against hCD64 concentration. On the procedure:
(§1) FcγR binding SPR: FcγR binding can be measured in vitro using purified FcγRs using methods, such as BIAcore™ surface plasmon resonance (SPR). One method tests the binding of purified His-tagged FcγR proteins (FcγR-his) to antibodies that are captured on a sensor surface containing protein A which has been immobilized using standard ethyl(dimethylaminopropyl) carbodiimide (EDC)/N-hydroxysuccinimide (NHS) chemistry with ethanolamine blocking. These experiments are performed on a BIAcore™ T200 instrument (GE Healthcare, Marlborough, MA) at 25° C. For example, samples of purified antibody at 3 μg/ml concentration are first captured on the immobilized protein A surface using a 15 second (s) contact time at 10 μl/min flow rate. This is followed by the binding of purified FcγR-His proteins at various concentrations, such as 10 μM-1.5 nM (2:1 dilution series) or 10 μM-13.7 nM (2:1 dilution series), using 120 s association and dissociation times at a flow rate of 30 μ/min. All steps are performed in a running buffer consisting of 10 mM NaPO₄, 130 mM NaCl, 0.05% p20 (PBS-T) pH 7.1. FcγR proteins tested in these studies include the “high affinity” FcγR CD64 (hFcγRI), as well as the “low affinity” FcγRs CD32a-H131 (FcγRIIa-H131), CD32a-R131 (FcγRIIa-R131), CD32b (FcγRIIb), CD16a-V158 (FcγRIIIa-V158), and CD16a-F158 (FcγRIIIa-F158), which were expressed and purified in house. […]
Background: In SPR one partner is held on a chip, and binding of the other changes the refractive index at the surface.

Assay [4] addresses T1, human-CD40-monomer protein. The experiment in a line: SPR, purified Ab captured on protein A, hCD40 monomer 500-3.9 nM, 37 C, 1:1 Langmuir fit. The protocol:
(§2) Based on the sequences, titer, and SPR binding data, antibodies were selected for larger scale expression, purification, and further characterization. SPR analysis using purified antibodies was performed by capturing antibodies on a protein A surface, with binding of a 500-3.9 nM (2:1) dilution series of human-CD40 monomer, at either 25° C. or 37° C. in PBS-T pH 7.1 buffer; the titration data was fit to a 1:1 Langmuir model.
(§3) SPR data are fit to a 1:1 Langmuir model using BIAcore™ T200 evaluation software to obtain values for the association rate constant (ka), dissociation rate constant (kd) and dissociation constant (KD).

The target of assay [5] is T3, human CD40 on cells (tonsillar B cells, immature dendritic cells, Ramos-Blue cells) (human, UniProt P25942 21-277). The experiment in a line: cell-based or functional assay.
T3 sequence (P25942 21-277 limits assumed): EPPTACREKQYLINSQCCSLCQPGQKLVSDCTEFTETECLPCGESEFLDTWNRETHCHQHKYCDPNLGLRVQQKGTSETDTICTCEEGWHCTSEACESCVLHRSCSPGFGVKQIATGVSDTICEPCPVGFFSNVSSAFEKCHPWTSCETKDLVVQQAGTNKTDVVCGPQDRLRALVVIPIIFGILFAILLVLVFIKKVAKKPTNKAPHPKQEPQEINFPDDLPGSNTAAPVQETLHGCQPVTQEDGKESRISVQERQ
Another assay deals with T4, hCD32a-R131 (human, UniProt P12318 34-217, limits assumed).
T4 construct: His-tagged; R131 allotype; also called FcγRIIa-R131
T4 sequence (looked up): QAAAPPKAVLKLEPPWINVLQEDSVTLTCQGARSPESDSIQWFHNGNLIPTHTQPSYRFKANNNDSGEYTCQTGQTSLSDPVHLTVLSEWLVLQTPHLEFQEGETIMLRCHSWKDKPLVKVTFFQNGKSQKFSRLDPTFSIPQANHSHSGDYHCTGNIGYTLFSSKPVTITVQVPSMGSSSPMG
The experiment in a line: SPR, antibody captured on protein A, His-tagged FcγR as analyte; 1:1 steady state fit. On the procedure: (§4) FcγR binding SPR: FcγR binding can be measured in vitro using purified FcγRs using methods, such as BIAcore™ surface plasmon resonance (SPR). One method tests the binding of purified His-tagged FcγR proteins (FcγR-his) to antibodies that are captured on a sensor surface containing protein A which has been immobilized using standard ethyl(dimethylaminopropyl) carbodiimide (EDC)/N-hydroxysuccinimide (NHS) chemistry with ethanolamine blocking. These experiments are performed on a BIAcore™ T200 instrument (GE Healthcare, Marlborough, MA) at 25° C. For example, samples of purified antibody at 3 μg/ml concentration are first captured on the immobilized protein A surface using a 15 second (s) contact time at 10 μl/min flow rate. This is followed by the binding of purified FcγR-His proteins at various concentrations, such as 10 μM-1.5 nM (2:1 dilution series) or 10 μM-13.7 nM (2:1 dilution series), using 120 s association and dissociation times at a flow rate of 30 μ/min. All steps are performed in a running buffer consisting of 10 mM NaPO₄, 130 mM NaCl, 0.05% p20 (PBS-T) pH 7.1. FcγR proteins tested in these studies include the “high affinity” FcγR CD64 (hFcγRI), as well as the “low affinity” FcγRs CD32a-H131 (FcγRIIa-H131), CD32a-R131 (FcγRIIa-R131), CD32b (FcγRIIb), CD16a-V158 (FcγRIIIa-V158), and CD16a-F158 (FcγRIIIa-F158), which were expressed and purified in house. SPR data are fit to either a 1:1 Langmuir model, or a 1:1 steady state model using BIAcore™ T200 evaluation software to obtain values for the association rate constant (ka), dissociation rate constant (kd) and dissociation constant (KD).

The target of a further assay is T5, hCD32a-H131 (human, UniProt P12318 34-217, limits assumed).
T5 construct: His-tagged; H131 allotype; also called FcγRIIa-H131
T5 sequence (looked up): T4 sequence (looked up) with R134H
Described as above. On the procedure: as §4

A further assay addresses T6, hCD16a-F158 (human, UniProt P08637 17-208).
T6 construct: His-tagged; F158 allotype; also called FcγRIIIa-F158
Described as above. On the procedure:
as §4

The next assay addresses T7, hCD32b (human, UniProt P31994 43-217, limits assumed).
T7 construct: His-tagged; also called FcγRIIb
T7 sequence (looked up): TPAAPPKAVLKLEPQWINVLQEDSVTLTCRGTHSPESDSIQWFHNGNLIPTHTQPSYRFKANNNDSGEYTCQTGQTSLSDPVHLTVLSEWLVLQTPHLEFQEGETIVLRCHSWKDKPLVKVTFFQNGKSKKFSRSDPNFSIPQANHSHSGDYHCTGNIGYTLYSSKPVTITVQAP
The description is as above. The protocol: as §4

The next assay addresses T8, hCD16a-V158 (human, UniProt P08637 17-208).
T8 construct: His-tagged; V158 allotype; also called FcγRIIIa-V158
The description is as above. On the procedure: as §4

Assay [6] addresses T2, hCD64. The experiment in a line: SPR, Ab captured on protein A, hCD64-His 10 µM-1.5 nM as analyte. The protocol:
as §1

Assay [7] concerns the target T3, human CD40 on cells (tonsillar B cells, …). The assay can be described thus: cell-based or functional assay. This is another data set of the same source.
The target of assay [8] is T2, hCD64. The assay can be described thus: SPR, antibody captured on protein A, His-tagged FcγR as analyte; 1:1 Langmuir fit. On the procedure:
as §1

In assay [9] the target is T1, human-CD40-monomer protein. The experiment in a line: SPR, purified Ab captured on protein A, hCD40 monomer 500-3.9 nM, 25 C, 1:1 Langmuir fit. On the procedure:
as §2, §3

Two molecules from patent US20240124597A1 (Bristol-Myers Squibb, published 2024) can be followed below.

What is called kon is a measure of how fast the partners come together. The low end stands for slower complex formation, the high end for faster complex formation. As a reminder, the Kd is the free concentration of one partner at which half of the binding sites on the other are occupied at equilibrium, for simple one-to-one binding. What is called koff is a measure of how fast the partners let go of each other. High values mean fast dissociation, low ones slow dissociation. For orientation: EC50 (read off the curve) means the concentration at which the effect is half-maximal. Higher therefore signals weaker potency.

Where a chain is given by its changes, count along the chain named. Names may count otherwise.

T1 sequence (P25942 21-193 limits assumed): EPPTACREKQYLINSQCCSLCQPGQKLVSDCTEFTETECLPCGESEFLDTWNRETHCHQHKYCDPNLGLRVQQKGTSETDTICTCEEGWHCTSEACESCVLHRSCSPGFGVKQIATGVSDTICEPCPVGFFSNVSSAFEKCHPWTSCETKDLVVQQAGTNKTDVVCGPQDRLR
T8 sequence (P08637 17-208 F176V limits assumed): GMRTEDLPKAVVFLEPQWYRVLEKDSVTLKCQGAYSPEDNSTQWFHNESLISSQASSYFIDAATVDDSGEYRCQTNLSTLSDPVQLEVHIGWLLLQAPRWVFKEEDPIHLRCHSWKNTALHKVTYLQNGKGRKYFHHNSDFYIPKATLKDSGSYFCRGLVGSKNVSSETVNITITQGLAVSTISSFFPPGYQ
T6 sequence (P08637 17-208 limits assumed): as the sequence (P08637 17-208 F176V limits assumed) above, with V160F counted along it

B1: Y12XX-hz16 (antibody, human IgG1, kappa, V domains shown)
VH: QVQLVQSGAEVKKPGSSVKVSCKASGYAFTSYWMHWVRQRPGQGLEWMGFINPTTGYSEYNQKFKDRVTITADKSTSTAYMELSSLRSEDTAVYYCARWGLPPFAYWGQGTLVTVSS
VL: DIQMTQSPSFLSASVGDRVTITCKASQDVSTAVAWYQQKPGKAPKLLIYSASYRYTGVPSRFSGSGSGTDFTLTISSLQPEDFATYYCQQHYSTPWTFGGGTKVEIKR
notes: Humanized, IgG1-P238K; supernatant sample
In turn, B1 gave a kon in assay [1] of 200000 M⁻¹ s⁻¹. In assay [2], this molecule yielded a Kd of 3.2 nM and a koff of 0.00064 s⁻¹.

B2: Y12XX-hz28-P238K (antibody, human IgG1, kappa)
heavy: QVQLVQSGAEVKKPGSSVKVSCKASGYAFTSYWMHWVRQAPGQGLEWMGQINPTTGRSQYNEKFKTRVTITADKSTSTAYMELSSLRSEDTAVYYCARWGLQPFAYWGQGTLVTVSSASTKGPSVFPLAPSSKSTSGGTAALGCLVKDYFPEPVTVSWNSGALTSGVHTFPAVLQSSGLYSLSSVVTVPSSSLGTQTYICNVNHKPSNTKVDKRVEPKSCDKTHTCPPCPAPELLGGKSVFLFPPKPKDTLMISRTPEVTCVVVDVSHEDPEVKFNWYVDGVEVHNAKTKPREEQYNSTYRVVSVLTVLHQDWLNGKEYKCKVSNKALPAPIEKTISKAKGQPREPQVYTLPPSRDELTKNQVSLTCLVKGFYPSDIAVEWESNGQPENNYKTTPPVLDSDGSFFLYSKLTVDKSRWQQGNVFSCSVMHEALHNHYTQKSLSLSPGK
light: DIQMTQSPSFLSASVGDRVTITCKASQDVSTAVAWYQQKPGKAPKLLIYSASYRYTGVPSRFSGSGSGTDFTLTISSLQPEDFATYYCQQHYSTPWTFGGGTKVEIKRTVAAPSVFIFPPSDEQLKSGTASVVCLLNNFYPREAKVQWKVDNALQSGNSQESVTEQDSKDSTYSLSSTLTLSKADYEKHKVYACEVTHQGLSSPVTKSFNRGEC
notes: also called Y12XX-hz28-IgG1-P238K; Y12XX-hx28-IgG1-P238K
Turning to B2, the “EC50 (read off the curve)” value in the assay with hCD64 [3] was ~30 nM. The Kd is 8.5 nM in [4]; > 50000 nM with hCD32a-R131; > 50000 nM with hCD32a-H131; > 50000 nM in the assay with hCD16a-F158; > 50000 nM in the assay with hCD32b; > 50000 nM in the assay with hCD16a-V158. Moreover, the Kd in assay [2] was 3.5 nM; with hCD64 [8] it was 25 nM; in [9], 3.1 nM. Moreover, the koff is 0.0037 s⁻¹ in [4], 0.00062 s⁻¹ in assay [2] and 0.00069 s⁻¹ in [9]. The results for the kon in assay [4], in assay [2] and in assay [9] were 440000 M⁻¹ s⁻¹, 180000 M⁻¹ s⁻¹ and 220000 M⁻¹ s⁻¹, respectively. Also, the “Inhibition of B cell proliferation induced by soluble CD40L trimer, Average (IC50 ng/ml)” value in assay [5] came to 6.7 ng/mL. Further, the “fold weaker binding compared to wild type (control-IgG1)” value with hCD64 [6] stood at 125 fold. Besides, the “Potency for inhibition of CD40L expressing CHO cells stimulation of B cell proliferation (IC50 ng/ml)” value in [7] came to 38.1 ng/mL.
